Test results: patent publication US20040043420A1, “Method of identifying conformation-sensitive binding peptides and uses thereof” (priority 2003, published 2004)

Columns and labels:
ER β [1] = biological target: ER β (Homo sapiens, UniProt Q92731); experiment: Phage ELISA fingerprint: binding of peptide phage to immobilized ER β in the presence of modulators (Table 14B)
[2] = biological target: T1, Gal4 transcriptional activation domain (AD) fused in frame with AR (yeast, UniProt P10275 1-920, limits assumed); experiment: cell-based or functional assay
T1 sequence (looked up): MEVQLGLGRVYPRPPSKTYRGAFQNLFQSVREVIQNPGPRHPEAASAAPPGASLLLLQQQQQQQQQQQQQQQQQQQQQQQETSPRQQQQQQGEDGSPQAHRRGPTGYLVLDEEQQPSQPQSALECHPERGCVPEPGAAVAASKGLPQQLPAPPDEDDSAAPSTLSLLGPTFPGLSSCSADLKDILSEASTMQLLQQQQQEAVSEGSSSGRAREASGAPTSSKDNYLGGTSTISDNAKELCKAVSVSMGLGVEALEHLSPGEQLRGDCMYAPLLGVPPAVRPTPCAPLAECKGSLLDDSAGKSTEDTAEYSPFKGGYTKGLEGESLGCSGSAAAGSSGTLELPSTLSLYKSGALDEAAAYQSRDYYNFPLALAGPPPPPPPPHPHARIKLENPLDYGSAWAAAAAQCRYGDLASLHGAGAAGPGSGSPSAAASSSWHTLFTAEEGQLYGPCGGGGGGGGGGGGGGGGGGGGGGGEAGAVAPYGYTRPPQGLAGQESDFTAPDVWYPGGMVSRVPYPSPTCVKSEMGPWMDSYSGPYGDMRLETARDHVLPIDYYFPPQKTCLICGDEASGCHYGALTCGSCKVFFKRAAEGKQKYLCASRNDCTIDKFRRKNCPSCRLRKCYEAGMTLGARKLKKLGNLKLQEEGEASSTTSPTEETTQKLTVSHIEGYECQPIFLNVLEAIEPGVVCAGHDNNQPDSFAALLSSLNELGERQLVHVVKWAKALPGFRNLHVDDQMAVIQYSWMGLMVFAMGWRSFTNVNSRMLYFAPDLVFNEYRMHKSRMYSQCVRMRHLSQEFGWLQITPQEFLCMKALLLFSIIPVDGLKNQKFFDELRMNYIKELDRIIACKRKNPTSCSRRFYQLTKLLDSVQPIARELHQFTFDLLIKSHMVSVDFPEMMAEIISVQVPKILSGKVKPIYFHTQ

[3] = biological target: T1, Gal4 transcriptional activation domain …; experiment: cell-based or functional assay; remark: listed apart in the source
ER β [4] = biological target: T2, ER β (UniProt Q92731 1-530, limits assumed); experiment: peptide probe binding to ERβ, Estriol
T2 construct: In vitro; also called estrogen receptor β; ERβ-ERE

ER β [5] = biological target: T2, ER β; experiment: peptide probe binding to ERβ, Clomiphene
ER β [6] = biological target: T2, ER β; experiment: peptide probe binding to ERβ, Raloxifene
ER α = biological target: T3, ER α (UniProt P03372 1-595, limits assumed); experiment: phage isolated on ERα-ERE; Tamoxifen
T3 construct: also called estrogen receptor α; ERα-ERE
T3 sequence (looked up): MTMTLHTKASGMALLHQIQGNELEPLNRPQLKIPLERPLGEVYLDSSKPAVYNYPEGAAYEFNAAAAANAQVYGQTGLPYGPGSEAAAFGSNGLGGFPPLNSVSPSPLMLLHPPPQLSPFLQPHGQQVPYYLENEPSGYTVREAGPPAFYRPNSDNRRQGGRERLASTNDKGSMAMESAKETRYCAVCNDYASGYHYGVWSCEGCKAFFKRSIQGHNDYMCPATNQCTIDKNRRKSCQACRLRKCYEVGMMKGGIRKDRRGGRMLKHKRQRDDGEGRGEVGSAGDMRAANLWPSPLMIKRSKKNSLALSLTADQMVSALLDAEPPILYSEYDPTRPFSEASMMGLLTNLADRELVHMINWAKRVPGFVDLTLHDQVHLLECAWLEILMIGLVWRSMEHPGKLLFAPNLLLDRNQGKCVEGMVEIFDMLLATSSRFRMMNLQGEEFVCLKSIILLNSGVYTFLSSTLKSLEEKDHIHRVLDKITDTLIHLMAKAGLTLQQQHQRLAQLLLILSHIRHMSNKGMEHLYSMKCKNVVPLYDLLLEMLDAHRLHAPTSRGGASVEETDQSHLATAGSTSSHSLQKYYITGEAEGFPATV

ER β [7] = biological target: T2, ER β; experiment: phage ELISA, ICI 182,780 1 µM

ER β (Homo sapiens, UniProt Q92731), sequence (Q92731 whole entry, species assumed, the tested form may be a part): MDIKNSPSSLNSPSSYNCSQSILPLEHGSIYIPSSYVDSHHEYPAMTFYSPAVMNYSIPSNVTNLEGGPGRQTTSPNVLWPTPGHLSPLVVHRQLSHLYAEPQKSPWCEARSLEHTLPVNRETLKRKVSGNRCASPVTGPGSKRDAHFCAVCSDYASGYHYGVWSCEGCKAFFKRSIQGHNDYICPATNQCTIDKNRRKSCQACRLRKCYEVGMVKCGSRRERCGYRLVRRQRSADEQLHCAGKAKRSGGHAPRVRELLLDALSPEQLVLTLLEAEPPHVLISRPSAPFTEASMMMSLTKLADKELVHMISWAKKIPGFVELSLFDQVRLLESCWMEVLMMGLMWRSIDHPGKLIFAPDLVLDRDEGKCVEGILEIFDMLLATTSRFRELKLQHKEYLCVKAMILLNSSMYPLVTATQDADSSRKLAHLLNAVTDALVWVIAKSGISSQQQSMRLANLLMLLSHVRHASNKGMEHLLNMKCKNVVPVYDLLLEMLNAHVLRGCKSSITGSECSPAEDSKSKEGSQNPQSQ
T2 sequence (Q92731 whole entry): as the sequence (Q92731 whole entry, species assumed, the tested form may be a part) above

SRLPPSVFSMCGSEVCLSR [9Tβ] was tested, and the “Class Specific Fingerprint on ERβ: phage binding, Nafoxidine present” value (ER β [1]; nafoxidine 10 μM) was 5.

SSNHQSSRLIELLSR [#4 ER./E2] was tested, and the “Class Specific Fingerprint on ERβ: phage binding, 4-OH Tamoxifen present” value (ER β [1]; 4-OH tamoxifen 1 μM) was 0, the “Class Specific Fingerprint on ERβ: phage binding, ICI 182,780 present” value (ER β [1]; ICI 182,780 1 μM) was 0 and the “Class Specific Fingerprint on ERβ: phage binding, Clomiphene present” value (ER β [1]; clomiphene 10 μM) was 0. For the same molecule, the “Class Specific Fingerprint on ERβ: phage binding, Raloxifene present” value (ER β [1]; raloxifene 1 μM) was 0.

B1: M7B1 (peptide)
chain: MKLLSSIEQACDICRLKKLKCSKEKPKCAKCLKNNWECRYSPKTKRSPLTRAHLTEVESRLERLEQLFLLIFPREDLDMILKMDSLQDIKALLTGLFVQDNVNKDAVTDRLASVETDMPLTLRQHRISATSSSEESSNKGQRQLTVSEFVGWFTGMAACSYAPDLDLQPS
B1 was tested, and the “Fold induction (yeast two-hybrid)” value [2] was greater than 2 fold, the “β-galactosidase activity (yeast two-hybrid), CPA” value (“β-galactosidase activity … CPA” below) [3] was 1.69 and the “β-galactosidase activity (yeast two-hybrid), DHT” value (from here on “β-galactosidase activity … DHT”) [3] was 3.93. For the same molecule, the “β-galactosidase activity (yeast two-hybrid), MPA” value (shortened to “β-galactosidase activity … MPA”) [3] was 6.9, the “β-galactosidase activity (yeast two-hybrid), No Lig” value (“β-galactosidase activity … No Lig” below) [3] was 0 and the “β-galactosidase activity (yeast two-hybrid), RU” value (“β-galactosidase activity … RU” for short) [3] was 0.1. The “β-galactosidase activity (yeast two-hybrid), Test” value (from here on “β-galactosidase activity … Test”) [3] was 4.5.

B2: 12B-β (peptide)
peptide: SSEACVGRWMLCEQLGVSR
notes: also called β III; B3
B2 was tested, and the Equiv. (ER β [4]) was 77%, the Equiv. (ER β [5]) was -61% and the Equiv. (ER β [6]) was -71%.

B3: T2-10 (peptide)
peptide: SRFEIWKPEPGCVSSLENWEPGKRVCSR
B3: binds (ER α).

B4: 35E-β (peptide)
peptide: SSLDLSQFPMTASFLRESR
notes: also called β II; B2
With B4 the “phage ELISA grade” value (ER β [7]) was 0.

B5: T3-11 (peptide)
peptide: SRVFGVSGGEVVLINGSSR
B5: binds (ER α).

B6: T3-1 (peptide)
peptide: SRTLQLDWGTLYSR
B6: binds (ER α).

B7: M4D1 (peptide)
chain: MKLLSSIEQACDICRLKKLKCSKEKPKCAKCLKNNWECRYSPKTKRSPLTRAHLTEVESRLERLEQLFLLIFPREDLDMILKMDSLQDIKALLTGLFVQDNVNKDAVTDRLASVETDMPLTLRQHRISATSSSEESSNKGQRQLTVSEFRFPFHEMVREWESMGLERVRYAEP
In the case of B7, the “Fold induction (yeast two-hybrid)” value [2] is reported as greater than 2 fold, the “β-galactosidase activity … CPA” value [3] is reported as -0.0396 and the “β-galactosidase activity … DHT” value [3] is reported as 0.395. The “β-galactosidase activity … MPA” value [3] was 1.7, the “β-galactosidase activity … No Lig” value [3] was 0 and the “β-galactosidase activity … RU” value [3] was 0.1. The “β-galactosidase activity … Test” value [3] was 0.134.

B8: M2H3 (peptide)
chain: MKLLSSIEQACDICRLKKLKCSKEKPKCAKCLKNNWECRYSPKTKRSPLTRAHLTEVESRLERLEQLFLLIFPREDLDMILKMDSLQDIKALLTGLFVQDNVNKDAVTDRLASVETDMPLTLRQHRISATSSSEESSNKGQRQLTVSEFRQSFVSEILGGGWLPLDLQPS
B8 was tested, and the “Fold induction (yeast two-hybrid)” value [2] was 10 fold, the “β-galactosidase activity … CPA” value [3] was 8.59 and the “β-galactosidase activity … DHT” value [3] was 24.1. The “β-galactosidase activity … MPA” value [3] was 19.2, the “β-galactosidase activity … No Lig” value [3] was 2.53 and the “β-galactosidase activity … RU” value [3] was 6.8. The “β-galactosidase activity … Test” value [3] was 26.6.

B9: 4T-β (peptide)
peptide: SREWEDGFGGRWLSR
notes: also called β I; B1
In the case of B9, the “phage ELISA grade” value (ER β [7]) is reported as 0, the Equiv. (ER β [5]) is reported as -62% and the Equiv. (ER β [6]) is reported as -53%.
